Assay results taken from patent publication EP2226633A1 (Charité - Universitätsmedizin Berlin, dated 2010).

T1: human LIFRα from HEK 293 cell extracts (human, UniProt P42702 45-1097)
T1 construct: Endogenous protein from crude cell extract; also called hLIFRα
T1 sequence (looked up): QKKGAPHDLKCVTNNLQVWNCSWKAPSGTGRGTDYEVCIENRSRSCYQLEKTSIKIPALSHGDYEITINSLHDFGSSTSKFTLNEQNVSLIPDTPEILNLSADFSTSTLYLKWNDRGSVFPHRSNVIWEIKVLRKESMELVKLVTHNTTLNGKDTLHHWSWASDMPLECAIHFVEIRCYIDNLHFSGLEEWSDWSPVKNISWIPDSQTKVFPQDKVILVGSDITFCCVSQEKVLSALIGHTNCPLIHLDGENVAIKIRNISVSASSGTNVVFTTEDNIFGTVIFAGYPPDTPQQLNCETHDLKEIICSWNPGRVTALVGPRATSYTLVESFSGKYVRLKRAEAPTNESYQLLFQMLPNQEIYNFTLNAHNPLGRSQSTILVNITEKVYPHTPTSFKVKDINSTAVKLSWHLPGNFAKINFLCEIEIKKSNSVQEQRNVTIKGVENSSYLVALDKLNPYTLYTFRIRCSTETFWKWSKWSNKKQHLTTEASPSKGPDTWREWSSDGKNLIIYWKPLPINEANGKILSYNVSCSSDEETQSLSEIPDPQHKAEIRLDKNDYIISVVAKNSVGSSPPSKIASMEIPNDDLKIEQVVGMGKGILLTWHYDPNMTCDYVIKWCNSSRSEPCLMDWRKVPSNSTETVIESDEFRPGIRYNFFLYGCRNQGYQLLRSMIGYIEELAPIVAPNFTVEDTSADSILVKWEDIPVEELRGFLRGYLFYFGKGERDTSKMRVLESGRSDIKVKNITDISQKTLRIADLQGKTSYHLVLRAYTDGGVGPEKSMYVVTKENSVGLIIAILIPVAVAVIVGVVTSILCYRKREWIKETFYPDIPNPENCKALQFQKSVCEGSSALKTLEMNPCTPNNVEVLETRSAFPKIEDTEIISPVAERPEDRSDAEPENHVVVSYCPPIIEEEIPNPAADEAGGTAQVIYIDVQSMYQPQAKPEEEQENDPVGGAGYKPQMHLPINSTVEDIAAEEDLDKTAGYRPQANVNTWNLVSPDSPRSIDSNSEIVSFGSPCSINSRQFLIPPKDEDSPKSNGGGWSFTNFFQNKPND

T2: V5-His-tagged murine soluble LIFR, secreted by HEK 293 cells (mouse, UniProt P42703-2 44-719, limits assumed)
T2 construct: Used as culture supernatant; also called msLIFR; murine soluble LIFRα; not shown: V5-His tag
T2 sequence (looked up): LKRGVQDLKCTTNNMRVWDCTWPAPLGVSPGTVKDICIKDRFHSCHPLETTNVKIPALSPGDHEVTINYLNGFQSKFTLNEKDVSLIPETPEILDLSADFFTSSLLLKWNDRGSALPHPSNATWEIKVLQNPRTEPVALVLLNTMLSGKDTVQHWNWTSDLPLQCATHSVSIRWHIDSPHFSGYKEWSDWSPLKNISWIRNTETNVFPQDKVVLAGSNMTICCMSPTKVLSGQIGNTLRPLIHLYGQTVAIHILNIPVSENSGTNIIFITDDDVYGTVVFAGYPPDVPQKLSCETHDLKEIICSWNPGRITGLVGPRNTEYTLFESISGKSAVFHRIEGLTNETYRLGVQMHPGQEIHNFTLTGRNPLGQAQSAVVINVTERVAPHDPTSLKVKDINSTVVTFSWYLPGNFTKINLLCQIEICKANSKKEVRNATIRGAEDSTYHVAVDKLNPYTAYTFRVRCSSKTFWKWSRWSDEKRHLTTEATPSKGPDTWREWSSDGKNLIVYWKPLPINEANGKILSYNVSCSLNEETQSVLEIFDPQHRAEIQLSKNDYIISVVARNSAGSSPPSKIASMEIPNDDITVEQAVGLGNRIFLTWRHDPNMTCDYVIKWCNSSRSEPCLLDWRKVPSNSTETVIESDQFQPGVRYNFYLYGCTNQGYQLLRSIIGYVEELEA


Columns and labels:
murine LIF, unlabelled = murine LIF, unlabelled (mouse, UniProt P09056 24-203); assay: displacement of 125I-mLIF from Ba/F3 cells transfected with LIFRα and gp130
[1] = biological target: iodinated murine LIF (125I-mLIF) (mouse, UniProt P09056 24-203); assay: radioligand binding on transfected Ba/F3 cells
[2] = biological target: T1, human LIFRα from HEK 293 cell extracts; assay: GST pull-down, HEK cell extracts as prey, anti-LIFR Western blot
[3] = biological target: T2, V5-His-tagged murine soluble LIFR, …; assay: GST pull-down, HEK supernatant with msLIFR as prey, anti-V5 Western blot

binding result (murine LIF, unlabelled)	binding result [1]	binding result [2]	binding result [3]	Binder
binds	binds	–	–	heterodimeric LIF receptor (murine gp130 and LIFRα) on transiently transfected Ba/F3 cells (receptor, whole, on cells; Also used here for the endogenous LIFR of murine M1 cells in the proliferation assay; also called classical LIFR; LIFRα/gp130) chain 1: QLLEPCGYIYPEFPVVQRGSNFTAICVLKEACLQHYYVNASYIVWKTNHAAVPREQVTVINRTTSSVTFTDVVLPSVQLTCNILSFGQIEQNVYGVTMLSGFPPDKPTNLTCIVNEGKNMLCQWDPGRETYLETNYTLKSEWATEKFPDCQSKHGTSCMVSYMPTYYVNIEVWVEAENALGKVSSESINFDPVDKVKPTPPYNLSVTNSEELSSILKLSWVSSGLGGLLDLKSDIQYRTKDASTWIQVPLEDTMSPRTSFTVQDLKPFTEYVFRIRSIKDSGKGYWSDWSEEASGTTYEDRPSRPPSFWYKTNPSHGQEYRSVRLIWKALPLSEANGKILDYEVILTQSKSVSQTYTVTGTELTVNLTNDRYVASLAARNKVGKSAAAVLTIPSPHVTAAYSVVNLKAFPKDNLLWVEWTPPPKPVSKYILEWCVLSENAPCVEDWQQEDATVNRTHLRGRLLESKCYQITVTPVFATGPGGSESLKAYLKQAAPARGPTVRTKKVGKNEAVLAWDQIPVDDQNGFIRNYSISYRTSVGKEMVVHVDSSHTEYTLSSLSSDTLYMVRMAAYTDEGGKDGPEFTFTTPKFAQGEIEAIVVPVCLAFLLTTLLGVLFCFNKRDLIKKHIWPNVPDPSKSHIAQWSPHTPPRHNFNSKDQMYSDGNFTDVSVVEIEANNKKPCPDDLKSVDLFKKEKVSTEGHSSGIGGSSCMSSSRPSISSNEENESAQSTASTVQYSTVVHSGYRHQVPSVQVFSRSESTQPLLDSEERPEDLQLVDSVDGGDEILPRQPYFKQNCSQPEACPEISHFERSNQVLSGNEEDFVRLKQQQVSDHISQPYGSEQRRLFQEGSTADALGTGADGQMERFESVGMETTIDEEIPKSYLPQTVRQGGYMPQ chain 2: LKRGVQDLKCTTNNMRVWDCTWPAPLGVSPGTVKDICIKDRFHSCHPLETTNVKIPALSPGDHEVTINYLNGFQSKFTLNEKDVSLIPETPEILDLSADFFTSSLLLKWNDRGSALPHPSNATWEIKVLQNPRTEPVALVLLNTMLSGKDTVQHWNWTSDLPLQCATHSVSIRWHIDSPHFSGYKEWSDWSPLKNISWIRNTETNVFPQDKVVLAGSNMTICCMSPTKVLSGQIGNTLRPLIHLYGQTVAIHILNIPVSENSGTNIIFITDDDVYGTVVFAGYPPDVPQKLSCETHDLKEIICSWNPGRITGLVGPRNTEYTLFESISGKSAVFHRIEGLTNETYRLGVQMHPGQEIHNFTLTGRNPLGQAQSAVVINVTERVAPHDPTSLKVKDINSTVVTFSWYLPGNFTKINLLCQIEICKANSKKEVRNATIRGAEDSTYHVAVDKLNPYTAYTFRVRCSSKTFWKWSRWSDEKRHLTTEATPSKGPDTWREWSSDGKNLIVYWKPLPINEANGKILSYNVSCSLNEETQSVLEIFDPQHRAEIQLSKNDYIISVVARNSAGSSPPSKIASMEIPNDDITVEQAVGLGNRIFLTWRHDPNMTCDYVIKWCNSSRSEPCLLDWRKVPSNSTETVIESDQFQPGVRYNFYLYGCTNQGYQLLRSIIGYVEELAPIVAPNFTVEDTSADSILVKWDDIPVEELRGFLRGYLFYFQKGERDTPKTRSLEPHHSDIKLKNITDISQKTLRIADLQGKTSYHLVLRAYTHGGLGPEKSMFVVTKENSVGLIIAILIPVAVAVIVGVVTSILCYRKREWIKETFYPDIPNPENCKALQFQKSVCEGSNALKTLEMNPCTPNNVEVLESRSIVPKIEDTEIISPVAERPGERSEVDPENHVVVSYCPPIIEEEITNPAADEVGGASQVVYIDVQSMYQPQAKAEEEQDVDPVVVAGYKPQMRLPISPAVEDTAAEDEEGKTAGYRPQANVNTWNLVSPDSPRSTDSNNEVVSFGSPCSINSRQFLIPPKDEDSPKSNGGGWSFTNFFQNKPND
–	–	no binding	no binding	GST fusion protein of mature murine EPO, expressed in E. coli (ligand, mouse, UniProt P07321 27-192, looked up, mature; also called GST-matmEPO; matmE; not shown: N-terminal GST tag from pGEX-6P-1) APPRLICDSRVLERYILEAKEAENVTMGCAEGPRLSENITVPDTKVNFYAWKRMEVEEQAIEVWQGLSLLSEAILQAQALLANSSQPPETLQLHIDKAISGLRSLTSLLRVLGAQKELMSPPDTTPPAPLRTLTVDTFCKLFRVYANFLRGKLKLYTGEVCRRGDR
